Measurements from US20190284560.

Test system: Bevacizumab (Avastin; anti-VEGF humanized monoclonal antibody) (Homo sapiens (humanized antibody)?)
Conditions: quartz crystal microbalance (AFFINIX Q8), velocity analysis; Bevacizumab immobilized on sensor; phosphate buffer (DPBS); aptamer 1.48-2.91 uM; sequence …

## CCGTGTGGTGGGGGTTGGGGGTTGTCGTTCGCCG [Bevacizumab DNA aptamer SEQ ID NO: 1]
  Kd: 9.1 µM
